Positions count from the first letter of the chain named.
B1: Clone 4.16 (bispecific antibody)
heavy 1: not shown
heavy 2: QVQLVQSGTEVKKPGASVKVSCKASGYTFTGYYMNWVRQAPGQGLEWVGWINPNSGDTNFAQKFQGRVTMTRDSSISTAYMELSRLRSDDTAVYYCARQFRGYSYGYGMDVWGKGTTVTVSSASTKGPSVFPLAPSSKSTSGGTAALGCLVKDYFPEPVTVSWNSGALTSGVHTFPAVLQSSGLYSLSSVVTVPSSSLGTQTYICNVNHKPSNTKVDKKVEPKSCDKTHTCPPCPAPEAAGGPSVFLFPPKPKDTLMISRTPEVTCVVVDVSHEDPEVKFNWYVDGVEVHNAKTKPREEQYNSTYRVVSVLTVLHQDWLNGKEYKCKVSNKALPAPIEKTISKAKGQPREPQVCTLPPSRDELTKNQVSLSCAVKGFYPSDIAVEWESNGQPENNYKTTPPVLDSDGSFFLVSKLTVDKSRWQQGNVFSCSVMHEALHNHYTQKSLSLSPG
light: not shown
B2: Clone 4.2 (bispecific antibody, human IgG1, kappa, L234A L235A)
heavy 1: not shown
heavy 2: QLQLQESGPGLVKPSETLSLTCTVSGGSISSSTYYWGWIRQPPGKGLEWIGSIFYSGNTYYNPSLKSRVTISVDTSKNHFSLKLSSVTAADTAVYYCAREIIEPRPGYFDYWGQGTLVTVSSASTKGPSVFPLAPSSKSTSGGTAALGCLVKDYFPEPVTVSWNSGALTSGVHTFPAVLQSSGLYSLSSVVTVPSSSLGTQTYICNVNHKPSNTKVDKKVEPKSCDKTHTCPPCPAPEAAGGPSVFLFPPKPKDTLMISRTPEVTCVVVDVSHEDPEVKFNWYVDGVEVHNAKTKPREEQYNSTYRVVSVLTVLHQDWLNGKEYKCKVSNKALPAPIEKTISKAKGQPREPQVCTLPPSRDELTKNQVSLSCAVKGFYPSDIAVEWESNGQPENNYKTTPPVLDSDGSFFLVSKLTVDKSRWQQGNVFSCSVMHEALHNHYTQKSLSLSPG
light: not shown
notes: FAP:LTBR 1:1 heterodimer of LTBR VHH (clone 1.7) paired with FAP Fab (clone 3.5), human IgG1 LALA
B3: Clone 4.5 (bispecific antibody, human IgG1, kappa, L234A L235A)
heavy 1: not shown
heavy 2: B2 heavy 2
light: not shown
notes: FAP:LTBR 2:1 heterodimer of FAP mAb (clone 3.5) with C terminal fused LTBR VHH (clone 1.6), human IgG1 LALA
B4: Clone 4.17 (bispecific antibody)
heavy 1: not shown
heavy 2: B2 heavy 2 with H79Q, K83R, S85N
light: not shown
B5: Clone 4.3 (bispecific antibody, human IgG1, kappa, L234A L235A)
heavy 1: not shown
heavy 2: QVQLVQSGAEVKKPGASVKVSCKASGYTFTGYYMHWVRQAPGQGLEWMGWIYPNTGGVNYAQNFQGRVTMTRDTSISTAYMELSRLRSDDTAVYYCARDDYNKNLDYWGQGTLVTVSSASTKGPSVFPLAPSSKSTSGGTAALGCLVKDYFPEPVTVSWNSGALTSGVHTFPAVLQSSGLYSLSSVVTVPSSSLGTQTYICNVNHKPSNTKVDKKVEPKSCDKTHTCPPCPAPEAAGGPSVFLFPPKPKDTLMISRTPEVTCVVVDVSHEDPEVKFNWYVDGVEVHNAKTKPREEQYNSTYRVVSVLTVLHQDWLNGKEYKCKVSNKALPAPIEKTISKAKGQPREPQVCTLPPSRDELTKNQVSLSCAVKGFYPSDIAVEWESNGQPENNYKTTPPVLDSDGSFFLVSKLTVDKSRWQQGNVFSCSVMHEALHNHYTQKSLSLSPG
light: not shown
notes: FAP:LTBR 1:1 heterodimer of LTBR VHH (clone 1.6) paired with FAP Fab (clone 3.6), human IgG1 LALA
B6: Clone 4.4 (bispecific antibody, human IgG1, kappa, L234A L235A)
heavy 1: not shown
heavy 2: B5 heavy 2
light: not shown
notes: FAP:LTBR 2:1 heterodimer of FAP mAb (clone 3.6) with C terminal fused LTBR VHH (clone 1.6), human IgG1 LALA

biological target: T1, human LTBR endogenously expressed on cells (HepG2, A549, A375, HCC1187, RPMI-7951, primary human breast CAFs) (human, UniProt P36941 31-435); test: cell-based or functional assay
T1 sequence (P36941 31-435): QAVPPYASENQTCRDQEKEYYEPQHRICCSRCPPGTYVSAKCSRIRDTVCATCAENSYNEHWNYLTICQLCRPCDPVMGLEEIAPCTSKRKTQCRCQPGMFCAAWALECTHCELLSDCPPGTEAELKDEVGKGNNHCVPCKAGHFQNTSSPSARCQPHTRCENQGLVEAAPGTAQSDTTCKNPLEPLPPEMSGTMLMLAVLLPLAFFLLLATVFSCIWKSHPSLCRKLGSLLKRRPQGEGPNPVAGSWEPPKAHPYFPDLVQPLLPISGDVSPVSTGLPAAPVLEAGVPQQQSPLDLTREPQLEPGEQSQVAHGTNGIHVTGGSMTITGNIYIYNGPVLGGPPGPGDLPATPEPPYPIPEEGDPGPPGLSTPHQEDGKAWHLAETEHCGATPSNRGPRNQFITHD

Binder | HepG2 Reporter assay, HepG2:FAP-CHO-K1 Co-culture EC50
B1 | 16 pM
B2 | 30 pM
B3 | 40 pM
B4 | 17 pM
B5 | 60 pM
B6 | 31 pM

biological target: T1, human LTBR endogenously expressed on …; test: cell-based or functional assay; remark: another data set of the same source

Binder | CCL19 upregulation, HCC1187:CAF Co-culture EC50
B1 | 90 pM
B2 | 60 pM
B3 | 23 pM
B4 | 60 pM
B5 | 90 pM
B6 | 54 pM

biological target: T1, human LTBR endogenously expressed on …; test: cell-based or functional assay; remark: another data set of the same source

Binder | ICAM1 upregulation in CAFs monoculture assay EC50
B2 | 19 pM
B3 | 11 pM
B5 | 40 pM
B6 | 4.8 pM

biological target: T1, human LTBR endogenously expressed on …; test: cell-based or functional assay; remark: another data set of the same source

Binder | chemokine (CCL5) induction in RPMI-7951 EC50
B1 | 7.8 pM
B2 | 63 pM
B3 | 18 pM
B4 | 10 pM
B5 | 100 pM
B6 | 28 pM

biological target: T1, human LTBR endogenously expressed on …; test: cell-based or functional assay; remark: another data set of the same source

Binder | HCC-1187:RPMI7951 (cis-activation) co-culture assay CCL5 read-out EC50 | HCC-1187:RPMI7951 (trans-activation) co-culture assay, CCL19 Read-out EC50
B2 | 110 pM | 160 pM
B3 | 12 pM | 
B5 | 120 pM | 110 pM
B6 | 12 pM | 

biological target: T1, human LTBR endogenously expressed on …; test: flow cytometry, A549 cells
Experimental: (§1) In short, 1×10⁶ cells were resuspended in the FACS buffer (1% BSA, 0.1% Sodium Azide in PBS), and 50 μl was added to each well (5×10⁴ cells/well) of a 96-U bottom plate. The cells were washed once and resuspended in 50 μl/well of FACS buffer containing a 1:3, 11-point series dilutions of constructs 4.1-4.6 and clones 4.8-4.9 followed by 1 h incubation at 4° C. […] Next, cells were washed and resuspended in FACS buffer and read on Beckman Coulter CytoFLEX. The data were analysed using FloJo V10 and GraphPad Prism v9. Clone 4.7 was tested for binding to A375 (LTBR positive cell line) and the HEK293-FAP overexpressing cell line, as described in examples 2.4 and 3.5. The EC50 values can be found in.

Binder | EC50
B2 | 3200 pM
B3 | 29000 pM
B5 | 6900 pM
B6 | 45000 pM

biological target: T2, human FAP expressed on cells (transfected HEK293; FAP-CHO-K1 recombinant cell line, BPS cat no. 79947) (human, UniProt Q12884 1-760); test: flow cytometry, FAP-CHO-K1 cells
T2 construct: also called HuFAP-HEK293; Hek-FAP
Experimental: as §1

Binder | EC50
B2 | 470 pM
B3 | 110 pM
B5 | 800 pM
B6 | 200 pM

biological target: T2, human FAP expressed on cells …; test: flow cytometry, HEK293-FAP overexpressing cells

Binder | EC50
B1 | 400 pM
B4 | 800 pM

biological target: T3, Biotinylated hLTBR-His-Avitag (Acro, cat no LTR-H82E9-25 µg) (human, UniProt P36941 31-227, biotinylated (Avitag)); test: BLI (Octet), biotinylated LTBR on SA sensor, antibody as analyte
T3 construct: bought protein loaded on SA Streptavidin biosensors
T3 sequence (P36941 31-227 limits assumed): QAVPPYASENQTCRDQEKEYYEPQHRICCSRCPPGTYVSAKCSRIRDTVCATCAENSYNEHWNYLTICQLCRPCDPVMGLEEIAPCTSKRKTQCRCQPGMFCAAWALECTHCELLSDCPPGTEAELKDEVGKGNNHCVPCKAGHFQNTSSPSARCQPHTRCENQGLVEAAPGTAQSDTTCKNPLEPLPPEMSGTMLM
Experimental: Briefly, Biotinylated hLTBR-His-Avitag (Acro, cat no LTR-H82E9-25 μg) was loaded on SA Streptavidin biosensors (Fortebio) in kinetics buffer (ForteBio) followed by a 2-fold dilution series starting at 50 nM of FAP/LTBR bispecific antibodies. Binding kinetics were studied in a 1× Kinetics buffer where the association was allowed for 100 seconds, followed by dissociation for 300 seconds. Data generated were referenced by subtracting a parallel buffer blank, the baseline was aligned with the y-axis, inter-step correlation by alignment against dissociation was performed, and the data were smoothed by a Savitzky-Golay filter in the data analysis software. The processed data were fitted using a 1:1 Langmuir binding model with R\hat{ }2 as a measurement of fitting accuracy. The KD and R\hat{ }2 values can be found in.

Binder | Kd
B2 | 3200 pM
B3 | 6500 pM
B5 | 3100 pM
B6 | 4600 pM

biological target: cynomologus recombinant LTBR (Octet, Example 4.8) (cynomolgus (Macaca fascicularis), UniProt P36941 31-227 (human entry), limits assumed); test: BLI (Octet), cyno LTBR immobilised on ARG sensor, antibody at 25 nM
Sequence (P36941 other isoform, or with tags, fused parts or gaps limits assumed): as the sequence (P36941 31-227 limits assumed) above, with A2V, A7G, Q24R, I45S, N163D, K181R, L184S, P186S counted along it
Experimental: A 2-fold series dilution starting at 50 nM of cynomologus recombinant LTBR was immobilised on the surface of ARG biosensors (Fortebio), followed by FAP/LTBR bispecific at 25 nM. Binding kinetics were studied in a 1× Kinetics buffer where the association was allowed for 180 seconds, followed by dissociation for 100 seconds. Sensor tips were regenerated using ethylene glycol. Data generated were referenced by subtracting a parallel buffer blank, the baseline was aligned with the y-axis, inter-step correlation by alignment against dissociation was performed, and the data were smoothed by a Savitzky-Golay filter in the data analysis software. The processed data were fitted using a 1:1 Langmuir binding model with R\hat{ }2 as a measurement of fitting accuracy. The KD values can be found in.

Binder | Kd
B2 | 6750 pM
B3 | 5220 pM
B5 | 5780 pM
B6 | 8300 pM

biological target: T4, human FAP (Acro, cat no FAP-H82Q6) (human, UniProt Q12884 26-760); test: BLI (Octet), antibody captured by anti-Fc, FAP as analyte; * value outside instrument specifications
T4 construct: 'FAP is naturally a dimeric antigen'
Experimental: Binding to recombinant FAP proteins was investigated by Bio-Layer Interferometry (BLI) using the Octet instrument. Using standard amine coupling chemistry, an anti-Fc antibody was immobilised on the surface of ARG biosensors (Fortebio). The FAP/LTBR bispecific antibodies were loaded on the previously coated surface with anti-Fc capture antibody, followed by a 2-fold series dilution starting at 50 nM of either cyno FAP (Acro, cat no FAP-C82Q5) or human FAP (Acro, cat no FAP-H82Q6). Binding kinetics were studied in a 1× Kinetics buffer where the association was allowed for 200 seconds, followed by dissociation for 400 seconds. Sensor tips were regenerated using 10 mM Glycine pH 2.0. Data generated were referenced by subtracting a parallel buffer blank, the baseline was aligned with the y-axis, inter-step correlation by alignment against dissociation was performed, and the data were smoothed by a Savitzky-Golay filter in the data analysis software. The processed data were fitted using a 1:1 Langmuir binding model with R\hat{ }2 as a measurement of fitting accuracy. The Results are summarised in. Avidity was observed as FAP is naturally a dimeric antigen, and the limited detection by Octet with these molecules has been reached. Species cross-reactivity has been confirmed for all test samples.

Binder | Kd
B2 | 325 pM
B3 | 100 pM
B5 | 192 pM
B6 | 231 pM
